Results taken from patent publication US20250186594A1 (BRIGHT PEAK THERAPEUTICS, published 2025).
Substitutions are numbered along the chain they refer to. Names may count otherwise.

B1: IL-18 variant SEQ ID NO: 30 with 5 kDa PEG (E6K, V11I, C38A, K53A, T63A, C76A, C127A, C68-5kPEG) (ligand)
chain: YFGKLKSKLSIIRNLNDQVLFIDQGNRPLFEDMTDSDARDNAPRTIFIISMYADSQPRGMAVAISVKCEKISTLSAENKIISFKEMNPPDNIKDTKSDIIFFQRSVPGHDNKMQFESSSYEGYFLAAEKERDLFKLILKKEDELGDRSIMFTVQNED
modifications: 5 kDa PEG on Cys 68 (C68-5kPEG)
notes: also called 30 + PEG5
B2: IL-18 variant SEQ ID NO: 30 with 10 kDa PEG (E6K, V11I, C38A, K53A, T63A, C76A, C127A, C68-10kPEG) (ligand)
chain: B1 chain
modifications: 10 kDa PEG on Cys 68 (C68-10kPEG)
notes: also called 30 + PEG10
B3: IL-18 variant SEQ ID NO: 30 with 20 kDa PEG (E6K, V11I, C38A, K53A, T63A, C76A, C127A, C68-20kPEG) (ligand)
chain: B1 chain
modifications: 20 kDa PEG on Cys 68 (C68-20kPEG)
notes: also called 30 + PEG20
B4: IL-18 variant SEQ ID NO: 30 with 30 kDa PEG (E6K, V11I, C38A, K53A, T63A, C76A, C127A, C68-30kPEG) (ligand)
chain: B1 chain
modifications: 30 kDa PEG on Cys 68 (C68-30kPEG)
notes: also called 30 + PEG30; 30 + PEG
B5: IL-18 variant SEQ ID NO: 57 (E6K, C38S, K53A) (ligand)
chain: B1 chain with I11V, A38S, A63T, A76C, A127C
B6: IL-18 variant SEQ ID NO: 57 with 30 kDa PEG (E6K, C38S, K53A, C68-30kDPEG) (ligand)
chain: B1 chain with I11V, A38S, A63T, A76C, A127C
modifications: 30 kDa PEG on Cys 68 (C68-30kDPEG)
notes: also called 57 + PEG30; 57 + PEG
B7: IL-18 variant SEQ ID NO: 59 with 30 kDa PEG (E6K, C38A, K53A, C68-30kDPEG) (ligand)
chain: B1 chain with I11V, A63T, A76C, A127C
modifications: 30 kDa PEG on Cys 68 (C68-30kDPEG)
notes: also called 59 + PEG30; 59 + PEG
B8: IL-18 variant SEQ ID NO: 60 (E6K, C38Q, K53A) (ligand)
chain: B1 chain with I11V, A38Q, A63T, A76C, A127C
B9: IL-18 variant SEQ ID NO: 60 with 30 kDa PEG (E6K, C38Q, K53A, C68-30kPEG) (ligand)
chain: B1 chain with I11V, A38Q, A63T, A76C, A127C
modifications: 30 kDa PEG on Cys 68 (C68-30kPEG)
notes: also called 60 + PEG
B10: IL-18 variant SEQ ID NO: 61 with 30 kDa PEG (E6K, C38A, K53A, C76A, C68-30kPEG) (ligand)
chain: B1 chain with I11V, A63T, A127C
modifications: 30 kDa PEG on Cys 68 (C68-30kPEG)
notes: also called 61 + PEG
B11: IL-18 variant SEQ ID NO: 219 (V11I, C38A, K53A, C76A, G108A, C127A) (ligand)
chain: B1 chain with K6E, A63T, G108A
B12: IL-18 variant SEQ ID NO: 220 (V11I, C38A, K53A, C76A, H109A, C127A) (ligand)
chain: B1 chain with K6E, A63T, H109A
B13: IL-18 variant SEQ ID NO: 221 (V11I, C38A, K53A, C76A, D110A, C127A) (ligand)
chain: B1 chain with K6E, A63T, D110A
B14: IL-18 variant SEQ ID NO: 222 (K8R, V11I, C38A, C76A, Q103E, C127A) (ligand)
chain: B1 chain with K6E, K8R, A53K, A63T, Q103E
B15: IL-18 variant SEQ ID NO: 223 (K8E, V11I, C38A, C76A, Q103R, C127A) (ligand)
chain: B1 chain with K6E, K8E, A53K, A63T, Q103R
B16: IL-18 variant SEQ ID NO: 224 (V11I, C38A, C76A, Q103K, C127A) (ligand)
chain: B1 chain with K6E, A53K, A63T, Q103K
B17: IL-18 variant SEQ ID NO: 225 (V11I, C38A, S55H, C76A, C127A) (ligand)
chain: B1 chain with K6E, A53K, S55H, A63T
B18: IL-18 variant SEQ ID NO: 226 (V11I, C38A, S55R, C76A, C127A) (ligand)
chain: B1 chain with K6E, A53K, S55R, A63T
B19: IL-18 variant SEQ ID NO: 227 (V11I, C38A, S55T, C76A, C127A) (ligand)
chain: B1 chain with K6E, A53K, S55T, A63T
B20: IL-18 variant SEQ ID NO: 228 (V11I, C38A, C76A, S105I, C127A) (ligand)
chain: B1 chain with K6E, A53K, A63T, S105I
B21: IL-18 variant SEQ ID NO: 229 (V11I, C38A, C76A, S105K, C127A) (ligand)
chain: B1 chain with K6E, A53K, A63T, S105K
B22: IL-18 variant SEQ ID NO: 230 (K8L, E6K, V11I, C38A, K53A, T63A, C76A, C127A) (ligand)
chain: B1 chain with K8L
B23: IL-18 variant SEQ ID NO: 232 (E6K, V11I, C38A, I49M, K53A, T63A, C76A, C127A) (ligand)
chain: B1 chain with I49M
B24: IL-18 variant SEQ ID NO: 233 (E6K, V11I, C38A, I49R, K53A, T63A, C76A, C127A) (ligand)
chain: B1 chain with I49R
B25: IL-18 variant SEQ ID NO: 234 (E6K, V11I, C38A, K53A, T63A, C76A, Q103R, C127A) (ligand)
chain: B1 chain with Q103R
B26: IL-18 variant SEQ ID NO: 235 (E6K, K8E, V11I, C38A, K53A, T63A, C76A, Q103R, C127A) (ligand)
chain: B1 chain with K8E, Q103R
B27: IL-18 variant SEQ ID NO: 237 (E6K, V11I, C38A, K53A, T63A, C76A, C127A, V153E) (ligand)
chain: B1 chain with V153E
B28: IL-18 variant SEQ ID NO: 238 (E6K, V11I, C38A, K53A, T63A, C76A, C127A, V153Y) (ligand)
chain: B1 chain with V153Y

The binders below were run against T1, Fc fused human IL-18Rα (human, UniProt Q13478 19-329, limits assumed) (assay: SPR, Fc-IL-18Rα captured, 1:1 fit).
T1 construct: also called IL-18Rα monomer; human IL-18 receptor alpha (CD218a); not shown: Fc
T1 sequence (looked up): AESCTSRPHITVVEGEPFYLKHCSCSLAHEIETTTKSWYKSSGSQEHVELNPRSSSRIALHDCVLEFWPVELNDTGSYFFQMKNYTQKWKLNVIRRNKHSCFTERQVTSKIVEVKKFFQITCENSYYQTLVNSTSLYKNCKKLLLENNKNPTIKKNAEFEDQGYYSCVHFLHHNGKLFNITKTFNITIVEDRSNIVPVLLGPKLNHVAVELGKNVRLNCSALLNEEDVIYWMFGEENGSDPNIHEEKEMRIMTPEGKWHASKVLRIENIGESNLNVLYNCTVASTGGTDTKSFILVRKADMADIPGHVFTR
Experimental: (§1) The interaction of the wild type and of modified IL-18 polypeptides with human IL-18 receptor subunits are measured with Surface Plasmon Resonance (SPR) technology. Anti-human IgG antibodies are bound by amine coupling onto a CM5 chip to capture 6 µg/mL of Fc fused human IL-18Rα, […] of Fc fused human IL-18Rβ, or […] of Fc fused human IL-18BP isoform a (IL-18BPa) for 30 min before capture. In other settings, […] of alpha and beta IL-18 receptors are mixed and pre-incubated for 30 min before capture of the alpha/beta heterodimer IL-18 receptor.
(§2) The kinetic binding of the IL-18 analytes are measured with a Biacore 8K instrument in two fold serial dilutions starting at […] down to 0.98 nM. Regeneration of the surface back to amine coupled anti IgG antibody is done after every concentration of analyte. To measure the protein association to the receptors, the samples are injected with a flow rate of […] for 60 s, followed by 300 s buffer only to detect the dissociation. The used running buffer is 1×PBS with 0.05% Tween20. The relative response units (RU, Y-axis) are plotted against time (s, X-axis) and analyzed in a kinetic 1:1 binding model for the monomer receptor binding and for the binding to the IL-18BP. A kinetic heterogenous ligand fit model is applied for the alpha/beta heterodimer binding.

Binder	Kd	koff	kon
B1	158 nM	0.0748 s⁻¹	475000 M⁻¹ s⁻¹
B2	239 nM	0.0779 s⁻¹	326000 M⁻¹ s⁻¹
B3	379 nM	0.0805 s⁻¹	213000 M⁻¹ s⁻¹
B4	770 nM	0.0842 s⁻¹	125000 M⁻¹ s⁻¹
B5	75 nM	0.0133 s⁻¹	95200 M⁻¹ s⁻¹
B6	701 nM	0.0267 s⁻¹	37900 M⁻¹ s⁻¹
B7	352 nM	0.0264 s⁻¹	74600 M⁻¹ s⁻¹
B8	9.85 nM	0.0102 s⁻¹	1.03e+06 M⁻¹ s⁻¹
B9	345 nM	0.0195 s⁻¹	66300 M⁻¹ s⁻¹
B10	~1000 nM	0.0288 s⁻¹	28700 M⁻¹ s⁻¹

The binders below were run against T2, IL-18 receptor (IL-18R) on HEK-Blue IL18R reporter cells (UniProt Q13478 19-541; O95256 20-599, limits assumed) (assay: cell-based or functional assay).
T2 sequence (looked up) 1: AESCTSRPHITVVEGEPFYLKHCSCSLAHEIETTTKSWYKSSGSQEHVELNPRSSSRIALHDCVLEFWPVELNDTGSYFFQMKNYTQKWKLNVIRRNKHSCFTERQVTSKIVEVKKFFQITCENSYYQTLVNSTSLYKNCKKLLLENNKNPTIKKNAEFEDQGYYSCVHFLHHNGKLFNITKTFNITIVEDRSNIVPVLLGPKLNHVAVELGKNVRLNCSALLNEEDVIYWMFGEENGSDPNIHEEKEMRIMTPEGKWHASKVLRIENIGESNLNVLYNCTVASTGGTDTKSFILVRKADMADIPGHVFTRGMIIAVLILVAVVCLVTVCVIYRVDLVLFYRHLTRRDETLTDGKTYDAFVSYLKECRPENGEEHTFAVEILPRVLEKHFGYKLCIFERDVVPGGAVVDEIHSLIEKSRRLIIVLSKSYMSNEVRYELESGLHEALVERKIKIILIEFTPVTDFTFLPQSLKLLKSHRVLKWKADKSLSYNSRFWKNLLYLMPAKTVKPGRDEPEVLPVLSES
T2 sequence (looked up) 2: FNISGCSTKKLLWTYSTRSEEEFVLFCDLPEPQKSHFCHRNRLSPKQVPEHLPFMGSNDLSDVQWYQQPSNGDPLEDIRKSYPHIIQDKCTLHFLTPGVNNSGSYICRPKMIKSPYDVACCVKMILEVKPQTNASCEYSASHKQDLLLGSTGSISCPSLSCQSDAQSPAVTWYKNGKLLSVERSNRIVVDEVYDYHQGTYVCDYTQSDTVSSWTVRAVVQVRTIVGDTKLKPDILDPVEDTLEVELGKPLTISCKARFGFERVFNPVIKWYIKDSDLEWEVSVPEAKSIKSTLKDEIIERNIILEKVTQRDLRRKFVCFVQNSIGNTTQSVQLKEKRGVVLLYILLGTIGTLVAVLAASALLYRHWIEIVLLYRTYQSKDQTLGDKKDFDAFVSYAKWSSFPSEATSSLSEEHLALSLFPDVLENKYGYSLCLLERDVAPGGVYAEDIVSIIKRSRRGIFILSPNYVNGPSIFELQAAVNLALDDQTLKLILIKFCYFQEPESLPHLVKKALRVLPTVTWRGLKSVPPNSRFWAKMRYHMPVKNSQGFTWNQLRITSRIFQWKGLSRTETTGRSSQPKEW

Binder	EC50, HEK-Blue IL18R reporter
B4	0.23 nM
B5	0.53 nM
B8	0.203 nM
B11	15.6 nM
B12	19.5 nM
B13	2.02 nM
B14	2.01 nM
B15	2.3 nM
B16	1.5 nM
B17	3.14 nM
B18	1.91 nM
B19	4.73 nM
B20	5.37 nM
B21	7.73 nM
B22	0.29 nM
B23	0.07 nM
B24	0.04 nM
B25	0.26 nM
B26	0.4 nM
B27	0.1 nM
B28	0.08 nM

These binders were tested against T3, IL-18Rα/β heterodimer (Fc fused human IL-18Rα mixed with Fc fused human IL-18Rβ) (human, UniProt Q13478 19-329; O95256 20-356, limits assumed) (assay: SPR, Fc-IL-18Rα/β captured, heterogeneous ligand fit).
T3 construct: Alpha and beta Fc fusions were mixed and pre-incubated for 30 min before capture on anti-human IgG; also called alpha/beta heterodimer IL-18 receptor; heterodimeric human IL-18 receptor alpha (CD218a) and IL-18R accessory protein (IL-18RAP/CDw218b); not shown: Fc
T3 sequence (looked up) 1: T1 sequence (looked up)
T3 sequence (looked up) 2: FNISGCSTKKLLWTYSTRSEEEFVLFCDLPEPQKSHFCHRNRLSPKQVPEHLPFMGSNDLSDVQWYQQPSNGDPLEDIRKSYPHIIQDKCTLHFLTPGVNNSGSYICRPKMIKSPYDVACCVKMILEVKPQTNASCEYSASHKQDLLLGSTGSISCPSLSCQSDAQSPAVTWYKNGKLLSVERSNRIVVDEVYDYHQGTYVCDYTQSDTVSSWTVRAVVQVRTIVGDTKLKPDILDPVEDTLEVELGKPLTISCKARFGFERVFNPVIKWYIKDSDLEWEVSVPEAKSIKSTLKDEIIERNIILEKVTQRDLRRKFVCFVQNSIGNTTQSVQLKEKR
Experimental: as §1, §2

Binder	Kd	koff	kon
B1	2.2 nM	0.000594 s⁻¹	269000 M⁻¹ s⁻¹
B2	8.7 nM	0.00105 s⁻¹	120000 M⁻¹ s⁻¹
B3	5.49 nM	0.000637 s⁻¹	116000 M⁻¹ s⁻¹
B4	15.7 nM	0.000618 s⁻¹	39400 M⁻¹ s⁻¹
B5	2.3 nM	0.000816 s⁻¹	535000 M⁻¹ s⁻¹
B6	23 nM	0.000787 s⁻¹	33800 M⁻¹ s⁻¹
B7	8.02 nM	0.00058 s⁻¹	84500 M⁻¹ s⁻¹
B8	0.49 nM	0.000589 s⁻¹	1.21e+06 M⁻¹ s⁻¹
B9	13.3 nM	0.000789 s⁻¹	68300 M⁻¹ s⁻¹
B10	15.5 nM	0.000589 s⁻¹	38100 M⁻¹ s⁻¹
